Results as given in the RNAGym collection of RNA variant scans (doi:10.1073/pnas.2313332121).

B1: TPR t1 (parent)
chain: GACCAAUCUGCCCUCAGAGCUCGAGAACAUCUUCGGAUGCAGAGGAGGCAGGCUUCGGUGGCGCGAUAGCGCCAACGUCCUCAACCUCCAAUGCAUCCCACCACAUGAUGAUGCCUGAAGAGCCUUGGUUUUUUG

Variants of: B1
Assay: polymerase ribozyme fitness, log enrichment relative to wild type (log ratio); higher = more active; in vitro selection for triplet polymerase activity
How it was run: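 A heterodimeric triplet polymerase ribozyme had each of its subunits mutagenized by PCR into a library, which was transcribed. One round of in vitro selection, done in triplicate, annealed each library with a biotinylated primer, its partner subunit and triplets, then incubated it frozen at −7 °C before gel excision of extended constructs, streptavidin-bead capture and RT-PCR. Fitness is the logarithm of genotype enrichment relative to wild-type enrichment, based on Illumina sequencing of inputs and outputs and inverse-variance-weighted replicate averages. A base-2 logarithm is used, and genotypes were kept only with ≥10 input reads and ≥1 read per output.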

Variant | polymerase ribozyme fitness (log ratio)
A37G U55G C88U A105C G120C U125C | -1.81
A50C A90C | -2.1
A41U G51A G57C C82A U96G C114U U116A | -7.09
G35A C101G | -5.52
G10A G19U | -3.62
U81C U87C A100U | -1.38
C64U G77C C79U C98A A121U U133C | -2.71
G52U U106C | -1.2
C56A G120C A121U U131A | -0.425
U7G C8G U106A C115A G127A | 2.21
U78A C104A C114A | -5.24
U9C G69U U78G A103U | -1.88
G61U G113A | -0.951
A43C C49U | -3.72
C73U A119G C123G | 2.02
C12A C20A | -2.37
U7A C40U G110A | -1.33
G39C A91C | -1.16
U7C G58A C70U U78C U116C U131G | -1.13
C49U G58C A111C | -0.939
G19C C22G C72U | -4.44
C70U U78C C101A | -1.6
U125C | -1.8
C70U C85A C102A | -5.05

Variant | polymerase ribozyme fitness (log ratio)
U21A A95G G117U | -1.3
C22G G63C C80A | -5.79
G47C C72U A90G C123U | -1.64
U9G A50C G63C | -1.21
C34G G120U | -4.75
A91C C123A | -1.1
G57A G71U C89U | -1.34
U21A U59C C123A G128C | -2.93
A74C U87G U129C | -0.576
G51U G61U C80A G127U | -1.14
U54G C115U | -0.94
C80U G113C G135C | -2.92
U92C C102U | -4.04
A26U U59G C62U | -4.33
A66G A100U G120C | -0.756
A16G G61A | -1.13
C88A G122A | -1.31
U9C C99U | -1.75
C20A C62U | -2.95
A5G A111G C123A G128U | -2.99
C72U G93A C115U | -1.52
G122U C124A | 1.69
A50C G71U A121C | 0.855
A2G C20U G36C C123U | -1.11

Variant | polymerase ribozyme fitness (log ratio)
C28U A46U C94G | -4.44
G61U A83U A91C U96A | -1.27
G36A C53U U126A U129G U133G | -4.06
C3U C15A U81A U92G C115U U125G | -5.92
U54A U96A G113C C123U U126A | -4.27
C28G C56A G110U C124U | -0.0721
A29C C56U U81A | -2.74
G44U G48A C114A | -2.35
U7C C13U | 0.52
G60U C70U C94U | -2.63
C88U C98G C114G | -6.17
U14C C56G | -2.27
C97G U112A | -3.48
C79U U129G | -1.35
C64G G65U C79G C104A C115A C123G | -6.93
G71C U87G C98U G113C | -4.17
G61U A66C U92C | -2.21
A29U C40U C72G A84C A100C U106A A119U | -3.21
U9A G127U | 0.46
U38A G63C C85U | -2.4
U7G A18G C20A A43G C72G | -5.03
A6U A41G U81A | -1.63
G44U U54C G113C | -3.08
U87A A111U | -2.69

Variant | polymerase ribozyme fitness (log ratio)
U78C C114G | -2.46
C8G G45A G48A G57A G61U U92G U112G | -6.23
G57C G60A G117U | -2.47
C82U C86G A121G | 1.16
C4U G52U G128U | -2.66
G120C G127U | 2.11
A41U C62A | -2.71
C34A C88U | -2.2
A26U A46U G61A | -3.77
C4G U9A C89A C115A G117C | -4.91
A18U A37U A41G C64U | -2.4
G39A G42U C80U C124U | -1.59
U21G C34A C49U C102G C114A | -8.62
C49U A119U | -0.961
C89G U126G | -3.19
G19U G36C A75G A111C U132A | -5.05
C73U A95C U130A | -1.26
C4G C20U C94U A111U | -5.59
C28G G39C C49U G69A | -6.04
C11U A84C U92G | -3.8
G36C G44C U81G A121C | -3.56
C11U G47A G61U U78A | -0.709
G17U C85A | -3.6
A46U G77A A95G | -1.31

Variant | polymerase ribozyme fitness (log ratio)
G42A G45C | -2.81
U129C U132A | -0.43
U7C C13U G47U C85A A111U | -5.01
C11A C49U C102A | -3.16
C70G C104A | -4.9
G10A A29U G69U A83U C114G C123G | -2.26
A5U C49U C70U | -1.06
C4A A18C G42U C86G C114G | -3.47
C82A U133A | -0.323
C28U G71A C89A C123G U130C | -3.76
G44U C49A | -2.67
C76A A105U C124A | -1.25
G47A A50U C73U C124U U132A | -0.0565
C8G A18G G19A A27C | -3.93
C3A U14G G69U C70U U106C | -4.86
C12G U112A | 1.99
C20U G35A G61A A111C | -5.53
C13U A16G A121U U129A | 1.78
U78C G135U | -1.27
A6G A41C C56A G93U G117C | -4.14
A27U C53G | -2.71
A68G C72G A83U C86A C104U U112G U116C A119C | -6.61
U21G G36A U54A G63U C82A C123A | -3.52
C11G A29C C49A G117A G120A | -3.48

Variant | polymerase ribozyme fitness (log ratio)
C22U G71A | -3.86
G35C C85A U109A C114G C124U | -4.87
C11G G110A | -1.04
C15A U96A | -2.85
A2U C8A A100U | -1.86
G39U C53U | -0.876
C12A A83U U106G | -2.32
G10U G42A G45A G77C U78G U96C G128A U131G | -3.17
A2C C4A A5C U125G | -0.48
C72A C101U C124A G135A | 2.37
A29G C40A C97U G113C | -4.13
G42C U87G | -1.08
G10A G48U G52A G77U | -2.41
C11A G113U | -3.17
G120C G127A U134C | -2.55
G60U C89U U106A | -0.38
G60A G113C | -2.12
C12A C56A C123U U131G | 0.231
A18U A46C G52A | -4.31
C31G G122A | -5.66
G58C C80A U96G | -4.46
G47U C123U | -0.404
G44C G120C | -0.584
A6U C70U U129C | -1.04

Variant | polymerase ribozyme fitness (log ratio)
G10A A66G | -1.17
C53G A83C | -1.33
C13U C20U | -0.561
A37G G48A C56G G71U G117C | -6.21
G61C C72U | 0.273
C15A U132A | -2.04
A6C U7G A29G G48C A95C | -3.37
U32C C56A U116G G122A U132C | -3.25
A46U C72U | -1.53
C13U G36A C64U | -0.484
A46U C85U | -2.5
C12U U81G | -2.24
G17A A84U | -2.87
G61U U81C C82U A121C | 0.807
U21C C101U | -0.578
U21A A26U | -4.35
G71C G120U | -0.52
G61C A91U | -4.64
G77U U78A A118U | -3.74
G51U G71A | -5.06
C70U C99A A121G | -5.54
A6U C22A C49U | -4.97
C15U C76G | -1.31
